Positions count from the first letter of the chain named.
B1: EGFR-CD3 DuetMab with the parental anti-CD3 arm (bispecific antibody, part only; not given: anti-EGFR arm, constant regions, V domains shown, not shown: another chain or arm of the molecule; a dimerising Fc or GST; small tags and cut ends)
VH: QVQLVESGGGVVQPGRSLRLSCAASGFTFTKAWMHWVRQAPGKQLEWVAQIKDKSNSYATYYADSVKGRFTISRDDSKNTLYLQMNSLRAEDTAVYYCRGVYYALSPFDYWGQGTLVTVSS
VL: DIVMTQTPLSLSVTPGQPASISCKSSQSLVHNNANTYLSWYLQKPGQSPQSLIYKVSNRFSGVPDRFSGSGSGTDFTLKISRVEAEDVGVYYCGQGTQYPFTFGSGTKVEIK
B2: EGFR-CD3 DuetMab with anti-CD3 variant AZ Vκ 29 + AZ VH E82 (bispecific antibody, part only; not given: anti-EGFR arm, constant regions, V domains shown, not shown: another chain or arm of the molecule; a dimerising Fc or GST; small tags and cut ends)
VH: EVQLVESGGALVKPGGSLRLSCAASGFTFTEAWMHWVRQAPGKQLEWVAQIKDRSQTYATYYAESVKGRFTISRDDSKNTLYLQMNSLKTEDTAVYYCRGVYYANTPFDYWGQGTLVTVSS
VL: B1 VL with T7S, S12P, Q17E, K24R, N33T, A34G, F60A, Y99F
B3: EGFR-CD3 DuetMab with anti-CD3 variant AZ Vκ 17 + AZ VH E82 (bispecific antibody, part only; not given: anti-EGFR arm, constant regions, V domains shown, not shown: another chain or arm of the molecule; a dimerising Fc or GST; small tags and cut ends)
VH: B2 VH
VL: B1 VL with T7S, S12P, Q17E, K24R, N33T, A34G, F60A, Y99A
B4: EGFR-CD3 DuetMab with anti-CD3 variant AZ Vκ 17 + AZ VH SN82 (bispecific antibody, part only; not given: anti-EGFR arm, constant regions, V domains shown, not shown: another chain or arm of the molecule; a dimerising Fc or GST; small tags and cut ends)
VH: B2 VH with T30S, E31N
VL: B1 VL with T7S, S12P, Q17E, K24R, N33T, A34G, F60A, Y99A
B5: EGFR-CD3 DuetMab with anti-CD3 variant AZ Vκ 26 + AZ VH SN75 (bispecific antibody, part only; not given: anti-EGFR arm, constant regions, V domains shown, not shown: another chain or arm of the molecule; a dimerising Fc or GST; small tags and cut ends)
VH: B2 VH with T30S, E31N, T106A
VL: B1 VL with T7S, S12P, Q17E, K24R, N33T, A34G, F60A, Y99A, T102S
B6: EGFR-CD3 DuetMab with anti-CD3 variant AZ Vκ 29 + AZ VH SN75 (bispecific antibody, part only; not given: anti-EGFR arm, constant regions, V domains shown, not shown: another chain or arm of the molecule; a dimerising Fc or GST; small tags and cut ends)
VH: B2 VH with T30S, E31N, T106A
VL: B1 VL with T7S, S12P, Q17E, K24R, N33T, A34G, F60A, Y99F
B7: EGFR-CD3 DuetMab with anti-CD3 variant AZ Vκ 17 + AZ VH R82 (bispecific antibody, part only; not given: anti-EGFR arm, constant regions, V domains shown, not shown: another chain or arm of the molecule; a dimerising Fc or GST; small tags and cut ends)
VH: B2 VH with E31R
VL: B1 VL with T7S, S12P, Q17E, K24R, N33T, A34G, F60A, Y99A
B8: EGFR-CD3 DuetMab with anti-CD3 variant AZ Vκ 17 + AZ VH E75 (bispecific antibody, part only; not given: anti-EGFR arm, constant regions, V domains shown, not shown: another chain or arm of the molecule; a dimerising Fc or GST; small tags and cut ends)
VH: B2 VH with T106A
VL: B1 VL with T7S, S12P, Q17E, K24R, N33T, A34G, F60A, Y99A
B9: EGFR-CD3 DuetMab with anti-CD3 variant AZ Vκ 26 + AZ VH R79 (bispecific antibody, part only; not given: anti-EGFR arm, constant regions, V domains shown, not shown: another chain or arm of the molecule; a dimerising Fc or GST; small tags and cut ends)
VH: B2 VH with E31R, N105V
VL: B1 VL with T7S, S12P, Q17E, K24R, N33T, A34G, F60A, Y99A, T102S
B10: EGFR-CD3 DuetMab with anti-CD3 variant AZ Vκ 29 + AZ VH R82 (bispecific antibody, part only; not given: anti-EGFR arm, constant regions, V domains shown, not shown: another chain or arm of the molecule; a dimerising Fc or GST; small tags and cut ends)
VH: B2 VH with E31R
VL: B1 VL with T7S, S12P, Q17E, K24R, N33T, A34G, F60A, Y99F
B11: EGFR-CD3 DuetMab with anti-CD3 variant AZ Vκ 26 + AZ VH SN79 (bispecific antibody, part only; not given: anti-EGFR arm, constant regions, V domains shown, not shown: another chain or arm of the molecule; a dimerising Fc or GST; small tags and cut ends)
VH: B2 VH with T30S, E31N, N105V
VL: B1 VL with T7S, S12P, Q17E, K24R, N33T, A34G, F60A, Y99A, T102S
B12: EGFR-CD3 DuetMab with anti-CD3 variant AZ Vκ 26 + AZ VH R82 (bispecific antibody, part only; not given: anti-EGFR arm, constant regions, V domains shown, not shown: another chain or arm of the molecule; a dimerising Fc or GST; small tags and cut ends)
VH: B2 VH with E31R
VL: B1 VL with T7S, S12P, Q17E, K24R, N33T, A34G, F60A, Y99A, T102S
B13: EGFR-CD3 DuetMab with anti-CD3 variant AZ Vκ 29 + AZ VH SN79 (bispecific antibody, part only; not given: anti-EGFR arm, constant regions, V domains shown, not shown: another chain or arm of the molecule; a dimerising Fc or GST; small tags and cut ends)
VH: B2 VH with T30S, E31N, N105V
VL: B1 VL with T7S, S12P, Q17E, K24R, N33T, A34G, F60A, Y99F
B14: EGFR-CD3 DuetMab with anti-CD3 variant AZ Vκ 26 + AZ VH SN82 (bispecific antibody, part only; not given: anti-EGFR arm, constant regions, V domains shown, not shown: another chain or arm of the molecule; a dimerising Fc or GST; small tags and cut ends)
VH: B2 VH with T30S, E31N
VL: B1 VL with T7S, S12P, Q17E, K24R, N33T, A34G, F60A, Y99A, T102S
B15: EGFR-CD3 DuetMab with anti-CD3 variant AZ Vκ 17 + AZ VH SN75 (bispecific antibody, part only; not given: anti-EGFR arm, constant regions, V domains shown, not shown: another chain or arm of the molecule; a dimerising Fc or GST; small tags and cut ends)
VH: B2 VH with T30S, E31N, T106A
VL: B1 VL with T7S, S12P, Q17E, K24R, N33T, A34G, F60A, Y99A

Target: Biotinylated recombinant human CD3εδ (Acro Biosystems, CDD-H82W6) (human) (UniProt P07766)
Test: Octet BLI, biotinylated CD3εδ on streptavidin sensors, 1:1 model

Sequence of Biotinylated recombinant human CD3εδ (Acro Biosystems, CDD-H82W6) (human) (P07766 23-126, stated change not applied, chain 1 of 2): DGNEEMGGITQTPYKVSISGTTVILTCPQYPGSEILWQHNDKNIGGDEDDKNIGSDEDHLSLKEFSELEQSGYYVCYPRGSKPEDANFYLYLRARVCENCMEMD
Sequence of Biotinylated recombinant human CD3εδ (Acro Biosystems, CDD-H82W6) (human) (P04234 22-105, stated change not applied, chain 2 of 2, further chain): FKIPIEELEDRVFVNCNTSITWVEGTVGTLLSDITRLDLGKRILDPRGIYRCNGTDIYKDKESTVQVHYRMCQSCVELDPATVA

Kd [nM] | koff [s⁻¹] | kon [M⁻¹ s⁻¹] | Binder
24.3 | 0.00105 | 43300 | B1
5000 | 0.0755 | 15100 | B2
4610 | 0.033 | 7140 | B3
1640 | 0.0149 | 9100 | B4
949 | 0.0155 | 16300 | B5
1010 | 0.0282 | 27900 | B6
550 | 0.00928 | 16900 | B7
2790 | 0.0198 | 7100 | B8
712 | 0.0233 | 32700 | B9
595 | 0.0231 | 38800 | B10
1930 | 0.0361 | 18700 | B11
411 | 0.00711 | 17300 | B12
2670 | 0.114 | 42800 | B13
1710 | 0.0212 | 12400 | B14
853 | 0.00923 | 10800 | B15

Target: T1, Human CD3 on HPB-ALL and Jurkat cells (human, UniProt P07766 23-207; P04234 22-171; P09693 23-182)
T1 construct: whole, on cells; also called hCD3+; human CD3+ cells
Test: flow cytometry on HPB-ALL cells (hCD3++), EGFR-CD3 DuetMab, detection with Alexa Fluor 647 goat F(ab')2 anti-human IgG Fcγ

T1 sequence (P07766 23-207, chain 1 of 3): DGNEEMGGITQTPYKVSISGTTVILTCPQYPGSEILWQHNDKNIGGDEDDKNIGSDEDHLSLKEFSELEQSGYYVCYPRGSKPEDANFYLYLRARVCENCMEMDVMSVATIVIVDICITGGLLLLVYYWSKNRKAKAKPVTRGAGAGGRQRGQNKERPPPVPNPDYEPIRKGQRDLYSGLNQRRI
T1 sequence (P04234 22-171, chain 2 of 3): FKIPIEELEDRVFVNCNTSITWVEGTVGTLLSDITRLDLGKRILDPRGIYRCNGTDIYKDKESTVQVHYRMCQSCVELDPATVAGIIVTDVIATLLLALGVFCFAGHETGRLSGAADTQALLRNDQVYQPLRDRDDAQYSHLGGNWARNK
T1 sequence (P09693 23-182, chain 3 of 3): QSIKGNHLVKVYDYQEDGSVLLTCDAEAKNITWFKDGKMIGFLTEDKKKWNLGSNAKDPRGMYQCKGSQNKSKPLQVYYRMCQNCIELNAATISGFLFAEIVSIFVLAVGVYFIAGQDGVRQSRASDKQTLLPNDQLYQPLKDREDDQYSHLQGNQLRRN

EC50 (read off the curve) [nM] | Binder
50 | B1

From patent publication US20250019438A1 (AstraZeneca / MedImmune, published 2025)
